In article PMC7137648:

Legend:
Conditions in all cases: glycan lost; control: wild-type SR-F1(20-421)
[1] = limited tryptic and chymotryptic proteolysis, SDS-PAGE
[2] = MALDI-TOF mass, SDS-PAGE, N-terminal sequencing
[3] = Ni-NTA purified yield from 293-F supernatant

Row | Protein | structure_or_conformation [1] | other: proteolytic processing [2] | expression_or_secretion, other: protein purified per 100 ml supernatant [3]
1 | SR-F1 (SREC-I, SCARF1): N289Q (protein) parent chain: MGLGLLLPLLLLWTRGTQGSELDPKGQHVCVASSPSAELQCCAGWRQKDQECTIPICEGPDACQKDEVCVKPGLCRCKPGFFGAHCSSRCPGQYWGPDCRESCPCHPHGQCEPATGACQCQADRWGARCEFPCACGPHGRCDPATGVCHCEPGWWSSTCRRPCQCNTAAARCEQATGACVCKPGWWGRRCSFRCNCHGSPCEQDSGRCACRPGWWGPECQQQCECVRGRCSAASGECTCPPGFRGARCELPCPAGSHGVQCAHSCGRCKHNEPCSPDTGSCESCEPGWNGTQCQQPCLPGTFGESCEQQCPHCRHGEACEPDTGHCQRCDPGWLGPRCEDPCPTGTFGEDCGSTCPTCVQGSCDTVTGDCVCSAGYWGPSCNASCPAGFHGNNCSVPCECPEGLCHPVSGSCQPGSGSRDTALIAGSLVPLLLLFLGLACCACCCWAPRSDLKDRPARDGATVSRMKLQVWGTLTSLGSTLPCRSLSSHKLPWVTVSHHDPEVPFNHSFIEPPSAGWATDDSFSSDPESGEADEVPAYCVPPQEGMVPVAQAGSSEASLAAGAFPPPEDASTPFAIPRTSSLARAKRPSVSFAEGTKFAPQSRRSSGELSSPLRKPKRLSRGAQSGPEGREAEESTGPEEAEAPESFPAAASPGDSATGHRRPPLGGRTVAEHVEAIEGSVQESSGPVTTIYMLAGKPRGSEGPVRSVFRHFGSFQKGQAEAKVKRAIPKPPRQALNRKKGSPGLASGSVGQSPNSAPKAGLPGATGPMAVRPEEAVRGLGAGTESSRRAQEPVSGCGSPEQDPQKQAEEERQEEPEYENVVPISRPPEP | no change | increases, extra loss of 2.3–2.6 kDa compared with the N382Q and N393Q mutants | decreases, 70 vs 450
2 | SR-F1 (SREC-I, SCARF1): N393Q (protein) parent chain: MGLGLLLPLLLLWTRGTQGSELDPKGQHVCVASSPSAELQCCAGWRQKDQECTIPICEGPDACQKDEVCVKPGLCRCKPGFFGAHCSSRCPGQYWGPDCRESCPCHPHGQCEPATGACQCQADRWGARCEFPCACGPHGRCDPATGVCHCEPGWWSSTCRRPCQCNTAAARCEQATGACVCKPGWWGRRCSFRCNCHGSPCEQDSGRCACRPGWWGPECQQQCECVRGRCSAASGECTCPPGFRGARCELPCPAGSHGVQCAHSCGRCKHNEPCSPDTGSCESCEPGWNGTQCQQPCLPGTFGESCEQQCPHCRHGEACEPDTGHCQRCDPGWLGPRCEDPCPTGTFGEDCGSTCPTCVQGSCDTVTGDCVCSAGYWGPSCNASCPAGFHGNNCSVPCECPEGLCHPVSGSCQPGSGSRDTALIAGSLVPLLLLFLGLACCACCCWAPRSDLKDRPARDGATVSRMKLQVWGTLTSLGSTLPCRSLSSHKLPWVTVSHHDPEVPFNHSFIEPPSAGWATDDSFSSDPESGEADEVPAYCVPPQEGMVPVAQAGSSEASLAAGAFPPPEDASTPFAIPRTSSLARAKRPSVSFAEGTKFAPQSRRSSGELSSPLRKPKRLSRGAQSGPEGREAEESTGPEEAEAPESFPAAASPGDSATGHRRPPLGGRTVAEHVEAIEGSVQESSGPVTTIYMLAGKPRGSEGPVRSVFRHFGSFQKGQAEAKVKRAIPKPPRQALNRKKGSPGLASGSVGQSPNSAPKAGLPGATGPMAVRPEEAVRGLGAGTESSRRAQEPVSGCGSPEQDPQKQAEEERQEEPEYENVVPISRPPEP | no change |  | decreases, 200 vs 450
3 | SR-F1 (SREC-I, SCARF1): N382Q (protein) parent chain: MGLGLLLPLLLLWTRGTQGSELDPKGQHVCVASSPSAELQCCAGWRQKDQECTIPICEGPDACQKDEVCVKPGLCRCKPGFFGAHCSSRCPGQYWGPDCRESCPCHPHGQCEPATGACQCQADRWGARCEFPCACGPHGRCDPATGVCHCEPGWWSSTCRRPCQCNTAAARCEQATGACVCKPGWWGRRCSFRCNCHGSPCEQDSGRCACRPGWWGPECQQQCECVRGRCSAASGECTCPPGFRGARCELPCPAGSHGVQCAHSCGRCKHNEPCSPDTGSCESCEPGWNGTQCQQPCLPGTFGESCEQQCPHCRHGEACEPDTGHCQRCDPGWLGPRCEDPCPTGTFGEDCGSTCPTCVQGSCDTVTGDCVCSAGYWGPSCNASCPAGFHGNNCSVPCECPEGLCHPVSGSCQPGSGSRDTALIAGSLVPLLLLFLGLACCACCCWAPRSDLKDRPARDGATVSRMKLQVWGTLTSLGSTLPCRSLSSHKLPWVTVSHHDPEVPFNHSFIEPPSAGWATDDSFSSDPESGEADEVPAYCVPPQEGMVPVAQAGSSEASLAAGAFPPPEDASTPFAIPRTSSLARAKRPSVSFAEGTKFAPQSRRSSGELSSPLRKPKRLSRGAQSGPEGREAEESTGPEEAEAPESFPAAASPGDSATGHRRPPLGGRTVAEHVEAIEGSVQESSGPVTTIYMLAGKPRGSEGPVRSVFRHFGSFQKGQAEAKVKRAIPKPPRQALNRKKGSPGLASGSVGQSPNSAPKAGLPGATGPMAVRPEEAVRGLGAGTESSRRAQEPVSGCGSPEQDPQKQAEEERQEEPEYENVVPISRPPEP | no change |  | decreases, 85 vs 450
